Biological target: T1, MBP–FlaA (C. jejuni flagellin FlaA, amino acids 177–482) (C. jejuni, biotinylated (EZ-Link NGS-PEG4-Biotin kit) in the BLI)
T1 chain: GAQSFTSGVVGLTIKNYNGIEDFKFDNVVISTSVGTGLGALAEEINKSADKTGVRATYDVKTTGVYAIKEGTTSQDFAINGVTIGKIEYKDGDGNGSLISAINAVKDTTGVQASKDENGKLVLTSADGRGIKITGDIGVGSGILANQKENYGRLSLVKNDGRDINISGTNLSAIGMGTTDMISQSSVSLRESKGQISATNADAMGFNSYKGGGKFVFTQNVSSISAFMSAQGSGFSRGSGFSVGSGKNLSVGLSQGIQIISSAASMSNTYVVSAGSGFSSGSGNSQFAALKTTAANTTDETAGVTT
Experiment: BLI

B1: aa682 (VHH)
VHH: QVQLVESGGGLVQAGGSLRVSCTASVSTFSINALGWYRQAPGKARELVAAIGSDGTVYYTDSVKGRFTISRDNAKNTVSLQMSSLKPEDTAVYYCNAAGKRIGSDGSIWFAVASFGSWGQGTQVTVSS
- koff: 0.024 s⁻¹

From paper PMC9200632 (2022)
